According to patent US11434267B2, “Peptides having reduced toxicity that stimulate cholesterol efflux” (The Regents of the University of California, priority 2013, dated 2022):

How the values were obtained:
[1] = target: T1, ABCA1 (Mus musculus, UniProt P41233); experiment: ABCA1-dependent cholesterol efflux from [3H]cholesterol-labeled J774 macrophages with and without cAMP; type: cell-based; details: cAMP treated J774, dose response, 4 h
T1 construct: treated (18 h) with a cAMP analog to induce ABCA1 protein expression; endogenous in cells; host or cells: J774 macrophages
T1 sequence (P41233 whole entry): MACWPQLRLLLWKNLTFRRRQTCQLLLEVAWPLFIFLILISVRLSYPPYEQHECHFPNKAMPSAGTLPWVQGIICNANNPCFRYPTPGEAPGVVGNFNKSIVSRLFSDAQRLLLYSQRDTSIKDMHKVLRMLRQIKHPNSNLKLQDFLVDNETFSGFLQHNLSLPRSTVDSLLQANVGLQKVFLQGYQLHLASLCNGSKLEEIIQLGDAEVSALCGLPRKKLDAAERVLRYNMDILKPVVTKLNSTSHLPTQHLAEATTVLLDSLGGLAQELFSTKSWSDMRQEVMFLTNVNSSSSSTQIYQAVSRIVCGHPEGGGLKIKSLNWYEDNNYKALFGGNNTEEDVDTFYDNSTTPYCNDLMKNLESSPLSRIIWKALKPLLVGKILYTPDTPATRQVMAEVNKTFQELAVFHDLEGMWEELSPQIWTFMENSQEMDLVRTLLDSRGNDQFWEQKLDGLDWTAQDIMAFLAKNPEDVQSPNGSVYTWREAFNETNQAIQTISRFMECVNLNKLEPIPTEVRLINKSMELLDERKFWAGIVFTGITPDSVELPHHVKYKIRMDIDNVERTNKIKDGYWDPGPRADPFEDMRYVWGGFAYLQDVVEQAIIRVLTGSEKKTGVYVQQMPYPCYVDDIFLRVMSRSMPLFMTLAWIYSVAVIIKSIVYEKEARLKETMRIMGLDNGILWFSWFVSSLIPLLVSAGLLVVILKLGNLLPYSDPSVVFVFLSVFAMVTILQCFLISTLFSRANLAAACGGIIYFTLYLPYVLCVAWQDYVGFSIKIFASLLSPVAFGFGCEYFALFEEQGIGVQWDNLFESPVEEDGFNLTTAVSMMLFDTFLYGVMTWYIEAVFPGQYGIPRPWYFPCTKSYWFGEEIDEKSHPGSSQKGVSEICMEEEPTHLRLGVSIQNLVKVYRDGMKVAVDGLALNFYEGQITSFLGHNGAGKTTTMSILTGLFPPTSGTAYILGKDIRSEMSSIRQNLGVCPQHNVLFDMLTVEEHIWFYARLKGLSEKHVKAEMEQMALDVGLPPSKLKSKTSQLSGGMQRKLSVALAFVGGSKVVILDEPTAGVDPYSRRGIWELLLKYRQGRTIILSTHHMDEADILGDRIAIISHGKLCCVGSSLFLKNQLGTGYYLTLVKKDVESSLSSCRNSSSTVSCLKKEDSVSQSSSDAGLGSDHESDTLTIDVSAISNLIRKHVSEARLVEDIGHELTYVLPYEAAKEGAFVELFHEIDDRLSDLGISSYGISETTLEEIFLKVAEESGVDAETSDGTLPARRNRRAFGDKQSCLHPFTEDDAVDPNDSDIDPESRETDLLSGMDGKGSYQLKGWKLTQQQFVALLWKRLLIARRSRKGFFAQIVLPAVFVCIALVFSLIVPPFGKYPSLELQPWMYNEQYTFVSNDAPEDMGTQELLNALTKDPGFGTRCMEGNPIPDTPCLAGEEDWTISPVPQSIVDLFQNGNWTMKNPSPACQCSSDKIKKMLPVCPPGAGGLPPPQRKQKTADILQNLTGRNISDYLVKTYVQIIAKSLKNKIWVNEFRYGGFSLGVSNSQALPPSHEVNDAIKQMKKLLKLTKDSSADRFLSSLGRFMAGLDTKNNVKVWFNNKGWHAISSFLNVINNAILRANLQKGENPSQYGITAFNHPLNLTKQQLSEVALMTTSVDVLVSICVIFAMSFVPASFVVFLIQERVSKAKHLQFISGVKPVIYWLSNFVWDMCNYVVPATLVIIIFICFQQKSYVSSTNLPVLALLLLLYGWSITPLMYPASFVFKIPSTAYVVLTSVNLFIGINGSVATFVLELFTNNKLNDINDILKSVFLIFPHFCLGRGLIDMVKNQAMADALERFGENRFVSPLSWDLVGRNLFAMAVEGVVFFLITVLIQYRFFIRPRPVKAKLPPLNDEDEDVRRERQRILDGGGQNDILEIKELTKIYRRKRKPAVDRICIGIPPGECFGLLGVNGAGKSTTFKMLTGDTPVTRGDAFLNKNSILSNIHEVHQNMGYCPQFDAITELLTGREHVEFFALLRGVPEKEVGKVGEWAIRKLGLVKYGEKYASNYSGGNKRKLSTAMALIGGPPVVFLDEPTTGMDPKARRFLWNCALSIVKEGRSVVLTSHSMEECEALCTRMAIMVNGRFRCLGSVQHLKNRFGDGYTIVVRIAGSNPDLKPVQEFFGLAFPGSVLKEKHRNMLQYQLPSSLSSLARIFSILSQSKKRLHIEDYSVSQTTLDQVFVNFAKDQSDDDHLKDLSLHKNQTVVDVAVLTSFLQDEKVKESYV
Text: Suitable cholesterol efflux assays are described in, e.g., Bielicki, J. K and Oda, M. N., Biochemistry, 41:2089-2096 (2002); Jia et al., Biochem. Biophys. Res. Common., 297:206-213 (2002). In some embodiments, a polypeptide known to mediate cholesterol efflux (e.g., helix 9/10 of Apo A-I) is used to screen for additional mediators of cholesterol efflux in a cell based assay. For example, cell lines in which cholesterol efflux can be enhanced using a cAMP analog that up-regulates ABCA1 protein expression (e.g., J774 macrophages) can conveniently be used to assess the ability of a polypeptide of the present invention to mediate cholesterol efflux. The cells are incubated with labeled cholesterol (e.g., [^3H]cholesterol) under conditions appropriate for cholesterol uptake by the cells. Thus, cAMP or cAMP analogs (e.g., CPT-cAMP) are incubated with the cells for a suitable time before the initiation of cellular cholesterol efflux, i.e., prior to contacting the cells with a test polypeptide. Measurement of labeled cholesterol appearing in the medium is used to determine the cholesterol efflux mediating activity of the test polypeptide.
Aliphatic analogs of ATI-5261 lacking phenylalanine residues retained potent ABCA1 selective cholesterol efflux activity (FIG. 7). J774 macrophages were labeled (48 h) with [^3H]cholesterol and treated (18 h) with a cAMP analog to induce ABCA1 protein expression; cells incubated in the absence of cAMP (left bars) served as controls. […] Peptides were used at a concentration of 30 μg/ml, which was maximal for promoting cholesterol efflux activity. Panel B—Dependence of cholesterol efflux on the concentration of peptides. […] Results are expressed as the difference in cholesterol efflux (%/4 h) observed using cAMP treated vs. non-treated J774 cells. Values are means±SD, n=3.

[2] = tested on: C57Bl/6 mice; type: in vivo; details: 300 mg/kg IP, male chow-fed C57Bl/6 mice
Procedure: The high-dose cytotoxic response of ATI-5261 observed in rat, rabbit and cynomolgus monkey is additionally recapitulated in mice (FIG. 4). Male chow-fed C57bl/6 mice were injected intraperitonelly (IP) with 30 or 300 mg/kg of lipid-fee ATI-5261. Blood was collected via the retro-orbital plexus 4 h after peptide injection and plasma subsequently obtained for measurement of CPK (Panel A) and ALT and AST activities (Panel B, ALT left bars, AST, right bars). Values are means±SD, n=4 mice per group.
This example illustrates that aromatic phenylalanine residues associated with the non-polar surface of ATI-5261 contributed to the majority of the peptide toxicity (FIG. 5). […] Blood was collected via retro-orbital plexus 4 h after injection for isolation of plasma. Levels of plasma CPK (Panel A), ALT (panel B) and AST (Panel C) were determined as described in FIG. 1. Values are means±SD, n=4 mice per group.
The concentrations of plasma lipids in C57Bl/6 mice following administration of the aliphatic analogs of ATI-5261 was also determined. […] All values (mg/dl) are means±SD, n=4, determined at 4 and 6 h post treatment with peptide.

[3] = tested on: cynomolgus monkeys; experiment: IV infusion toxicity of ATI-5261 in monkeys; type: in vivo, cynomolgus monkey
Procedure: Male (upper panel) and female (lower panel) cynomolgus monkeys were administered ATI-5261 at a fixed dose of 100 mg/kg by IV infusion (60 min) every 96 hours for a total of 4 injections. Blood was collected 24 h post infusion and levels of plasma ALT, AST, creatine kinase (CPK), and total and indirect bilirubin determined. Values are expressed as a fold-increase vs. pre-dose levels.

[4] = tested on: New Zealand White rabbits; experiment: High-dose IV bolus toxicity of ATI-5261 in rabbits (plasma ALT, AST, TG, cholesterol); type: in vivo, rabbit
Text: Peptides or peptidomeimetics of the invention can be evaluated for toxicity using known assays. Examples of such assays are illustrated in the Examples section. Toxicity is typically assayed in a rat, rabbit, mouse, monkey or dog model. […] Safety chemistry panels including plasma alanine aminotransferase (ALT), aspartate amino transferase (AST), and creatine kinase (CK) can then be determined in the blood. The presence of elevated levels of these enzymes in the blood compared to control normal values is indicative of toxicity. A peptide of the invention is typically considered to be non-toxic or to have little toxicity, when the results using the highest dose, 300 mg/kg in this illustrative assay, are equivalent (fall within the standard deviation) of the values measured for the control animals that received vehicle alone, or are no more than 2 or 3 times background obtained with vehicle alone. […]
Cytotoxicity of an HDL mimetic peptide ATI-5261 at high doses was evaluated in rats and rabbits (FIG. 1). […]
For the experiments in FIG. 2, male chow-fed Wistar rats (Panels A and B) were administered ATI-5261 at doses of 3, 30, and 300 mg/kg as described in FIG. 1. Plasma triglyceride (TG, Panel A) and unesterified cholesterol (Panel B) concentrations were determined enzymatically at the times indicated. […]

[5] = tested on: C57Bl/6 mice; details: mouse, in vivo, ip, 300 mg/kg

ATI-5261: HDL mimetic peptide, parent peptide with phenylalanine and arginine residues; toxic at high doses; used as positive control (EVRSKLEEWFAAFREFAEEFLARLKS)
peptide concentration at saturation of cholesterol efflux [1]: roughly 3 μg/ml
TG elevating effect (plasma TG, cholesterol) ([2]; 4 and 6 h): marked increase in plasma TG, total and unesterified (free) cholesterol (FC)
cytotoxic/toxic response (plasma CPK, ALT, AST) ([2]; 4 h): High levels of cytotoxic markers
cytotoxic response (ALT, AST, CPK, bilirubin) ([3]; 100 mg/kg IV infusion (60 min) every 96 hours, 4 injections, 24 h post infusion): induced a cytotoxic response
plasma creatine kinase, fold-increase vs. pre-dose ([3]; 100 mg/kg IV infusion, after the first infusion, male and female): marked increase
plasma triglycerides and unesterified cholesterol ([4]; single IV bolus): increased plasma triglycerides and cholesterol
cytotoxic response (plasma ALT, AST) ([4]; single IV bolus 3, 30 or 300 mg/kg): induced a cytotoxic response
triglyceride (TG) [5]: triglyceride (TG) elevation effects
